B1: Bacteriorhodopsin, P02945 (parent)
chain: MLELLPTAVEGVSQAQITGRPEWIWLALGTALMGLGTLYFLVKGMGVSDPDAKKFYAITTLVPAIAFTMYLSMLLGYGLTMVPFGGEQNPIYWARYADWLFTTPLLLLDLALLVDADQGTILALVGADGIMIGTGLVGALTKVYSYRFVWWAISTAAMLYILYVLFFGFTSKAESMRPEVASTFKVLRNVTVVLWSAYPVVWLIGSEGAGIVPLNIETLLFMVLDVSAKVGFGLILLRSRAIFGEAEAPEPSAGDGAAATSD

Values joined by “and” are separate entries in the source; they are usually repeats but may differ in a detail not shown here. Identical values can stand only once.

One series covers variants of B1. The note with it: Halobacterium salinarum (strain ATCC 700922 / JCM 11081 / NRC-1); pH 3.5; Thermal; DSC; structure 1C3W; whole UniProt chain shown.
As a reminder, the Tm is the temperature at the midpoint of the melting transition. Consider E22Q E207Q E217Q, for which the Tm amounted to 69.4 °C and the “change of melting temperature, mutant - wild type (higher = more stable)” value (“change of melting temperature, mutant” for short) is -7.2 °C.

The series is the same for the next values; noted with them: Halobacterium salinarum (strain ATCC 700922 / JCM 11081 / NRC-1); pH 4; Thermal; UV spectroscopy; transition: 2; structure 1C3W; whole UniProt chain shown.
In the case of E22Q E207Q E217Q, the melting temperature (Tm) is 60.1 °C and 64.1 °C; the “change of melting temperature, mutant” value was -5.1 °C.

The series is the same for the next values; noted with them: Halobacterium salinarum (strain ATCC 700922 / JCM 11081 / NRC-1); pH 7; Thermal; DSC; structure 1C3W; whole UniProt chain shown.
For E22Q E207Q E217Q, the melting temperature (Tm) is 93.3 °C and the “change of melting temperature, mutant” value is -4.9 °C.

The series is the same for the next values; noted with them: Halobacterium salinarum (strain ATCC 700922 / JCM 11081 / NRC-1); pH 7; Thermal; UV spectroscopy; transition: 2; structure 1C3W; whole UniProt chain shown.
With E22Q E207Q E217Q, the “change of melting temperature, mutant” value was -0.4 °C.

The same series, now with this note: Halobacterium salinarum (strain ATCC 700922 / JCM 11081 / NRC-1); pH 9; Thermal; DSC; structure 1C3W; whole UniProt chain shown.
For the variant E22Q E207Q E217Q, the melting temperature (Tm) was determined as 82.6 °C and the “change of melting temperature, mutant” value is -11.9 °C.

The series is the same for the next values; noted with them: Halobacterium salinarum (strain ATCC 700922 / JCM 11081 / NRC-1); pH 9.5; Thermal; UV spectroscopy; glycine buffer; transition: 2; structure 1C3W; whole UniProt chain shown.
Take E22Q E207Q E217Q: the “change of melting temperature, mutant” value came out at 0 °C.

The values are drawn from FireProtDB (doi:10.1111/febs.12694).
